The data set concerns the target T1, CasR (Rv1776c) (UniProt O33179 1-186).
T1 sequence: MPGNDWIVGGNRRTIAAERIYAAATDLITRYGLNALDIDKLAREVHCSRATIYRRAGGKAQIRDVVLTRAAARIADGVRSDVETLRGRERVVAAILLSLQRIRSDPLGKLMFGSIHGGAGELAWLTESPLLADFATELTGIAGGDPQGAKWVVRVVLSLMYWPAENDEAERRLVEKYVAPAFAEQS
In words: EMSA; 0-2 uM protein. Particulars: protein: recombinant, tags: N-terminal His (pET28a), chain copies: 2. In general terms: A gel shift assay detects complexes by their altered migration in electrophoresis.

B1: casRp1 (dsDNA)
DNA 1: AATAAGTAAGGCTTGTGTCTCACTATGA
DNA 2: TCATAGTGAGACACAAGCCTTACTTATT
For the molecule B1, the binding result (blunt) is recorded as “binds”.

B2: csm6p1 (dsDNA)
DNA 1: CGATAGTTGGCCCAATTGTCTATCTGGGC
DNA 2: GCCCAGATAGACAATTGGGCCAACTATCG
As to B2, the binding result is listed as “binds”.

These data come from PMC9953421, “Regulation of CRISPR-Associated Genes by Rv1776c (CasR) in Mycobacterium tuberculosis”.
